Laboratory results as given in patent US20240043568A1 (KEYMED BIOSCIENCES, published 2024).
Numbering of substitutions follows the chain as printed. Read-outs that look alike come from different tables or passages of the source.

T1: human CD3εγ-Fc heterodimer (human)
T1 construct: also called human CD3 εγ protein; recombinant CD3 εγ protein
T1 chain 1: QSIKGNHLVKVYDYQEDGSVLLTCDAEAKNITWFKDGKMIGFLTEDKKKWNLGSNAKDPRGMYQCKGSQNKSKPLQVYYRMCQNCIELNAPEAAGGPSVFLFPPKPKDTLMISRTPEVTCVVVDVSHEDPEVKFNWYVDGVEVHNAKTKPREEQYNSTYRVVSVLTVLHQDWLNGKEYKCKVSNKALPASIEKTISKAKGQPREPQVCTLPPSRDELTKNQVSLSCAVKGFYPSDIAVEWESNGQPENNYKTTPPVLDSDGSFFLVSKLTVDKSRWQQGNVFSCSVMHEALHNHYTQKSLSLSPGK
T1 chain 2: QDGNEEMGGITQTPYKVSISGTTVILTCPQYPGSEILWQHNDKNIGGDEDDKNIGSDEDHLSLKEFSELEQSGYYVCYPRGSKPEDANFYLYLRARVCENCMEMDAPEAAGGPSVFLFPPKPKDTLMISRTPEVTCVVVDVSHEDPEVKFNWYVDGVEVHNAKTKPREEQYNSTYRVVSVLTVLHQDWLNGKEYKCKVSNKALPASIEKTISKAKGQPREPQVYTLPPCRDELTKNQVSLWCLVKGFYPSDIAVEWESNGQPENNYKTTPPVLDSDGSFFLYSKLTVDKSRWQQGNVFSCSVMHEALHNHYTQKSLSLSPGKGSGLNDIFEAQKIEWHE

T2: cynomolgus monkey CD3εγ-Fc heterodimer (cynomolgus monkey)
T2 construct: also called monkey CD3 εγ protein
T2 chain 1: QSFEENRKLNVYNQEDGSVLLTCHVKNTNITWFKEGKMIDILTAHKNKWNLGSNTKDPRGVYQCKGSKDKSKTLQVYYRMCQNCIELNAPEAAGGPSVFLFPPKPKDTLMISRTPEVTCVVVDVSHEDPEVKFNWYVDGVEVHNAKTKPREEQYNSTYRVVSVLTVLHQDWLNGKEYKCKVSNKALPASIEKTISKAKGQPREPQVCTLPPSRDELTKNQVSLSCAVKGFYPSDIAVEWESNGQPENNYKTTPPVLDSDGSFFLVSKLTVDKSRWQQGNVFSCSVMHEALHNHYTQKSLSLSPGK
T2 chain 2: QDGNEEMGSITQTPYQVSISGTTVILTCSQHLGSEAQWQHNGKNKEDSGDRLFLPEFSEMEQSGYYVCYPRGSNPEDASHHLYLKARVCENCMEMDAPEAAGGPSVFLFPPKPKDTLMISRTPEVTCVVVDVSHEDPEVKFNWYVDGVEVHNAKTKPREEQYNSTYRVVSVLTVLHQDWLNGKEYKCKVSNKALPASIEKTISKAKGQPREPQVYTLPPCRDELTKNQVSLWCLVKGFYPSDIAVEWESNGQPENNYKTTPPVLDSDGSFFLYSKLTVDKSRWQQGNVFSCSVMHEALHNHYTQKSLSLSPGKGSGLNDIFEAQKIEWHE

B1: aCD3-hVH9/VL2 (antibody, V domains shown)
VH: EVQLVESGGGLVQPGGSLRLSCAASGFTFNTYAMNWVRKAPGKGLEWVGRIRSKYNNYATYYADSVKDRFTISRDDSKNSLYLQMNSLKTEDTAVYYCVRHGNFGNSYVSWFAYWGQGTLVTVSS
VL: QAVVTQEPSLTVSPGGTVTLTCRSSTGAVTTSNYANWVQEKPGQAPRGLIGGTNKRAPWTPARFSGSLLGGKAALTLSGAQPEDEAEYYCALWYSNLWVFGGGTKLTVL
notes: Human IgG4, lambda
B2: aCD3-hVH9/VL5 (antibody, V domains shown)
VH: B1 VH
VL: B1 VL with L77I, S78T, P82A, A91V
notes: Human IgG4, lambda
B3: 49G8 (antibody, V domains shown)
VH: QVQLQQSGAELVRPGASVKLSCKALGYTFADYEIHWVKQTPVHGLEWIGAIHPGSGGTAYNQTFEGKATLTADKSSTTAYMELSSLTSEDSAVYYCTRYYSFAYWGQGTLVTVSA
VL: DVVMTQTPLSLPVSLGDQASISCRSSQSIVHSNGNTYLEWYLQKPGQSPKLLIYKVSNRFSGVPDRFSGSGSGTDFTLKISRVEAEDLGVYFCLQVTHVPLTFGAGTKLELK
notes: Chimeric human IgG1; also called 49G8 chimeric antibody; Mab 49G8

Assays:
[1] = target: T1, human CD3εγ-Fc heterodimer; test: ELISA on coated human CD3εγ protein, A450 [panel Human CD3 εγ dimer]
Description: (§1) Human CD3 εγ protein and monkey CD3 εγ protein were coated separately overnight at 4° C. After blocking with 2% skim milk, different dilutions of CD3 antibody were added to each well and incubated for 1 hour. The secondary antibody HPR-labeled goat anti-human IgG Fc was added. After being developed by the TMB solution. The reaction was stopped with the concentrated sulfuric acid and the absorbance was read at 450 nm.

[2] = target: T1, human CD3εγ-Fc heterodimer; test: ELISA, coated human CD3εγ protein
Description: as §1, with “was” for “and monkey CD3 εγ protein were”, “coated” for “coated separately”, “antibodies was” for “antibody were”, “solution, the” for “solution. The”, “acid,” for “acid”, “nm (the results are shown in FIG. 12 and Table 8).” for “nm.”

[3] = target: T2, cynomolgus monkey CD3εγ-Fc heterodimer; test: ELISA on coated monkey CD3εγ protein, A450 [panel Monkey CD3 εγ dimer]
Description: as §1

human CD3 on T cells = target: T3, human CD3 on T cells (human, UniProt P07766 23-207); test: flow cytometry, Jurkat cells
T3 construct: whole, on cells; The target is the native CD3 complex on cells; The recombinant antigen used elsewhere is the εγ heterodimer; also called CD3 on Jurkat cells; CD3 on human peripheral blood CD4+ and CD8+ T cells
Description: Jurkat cells in the logarithmic growth phase were taken, blocked with 3% BSA for 30 min, and added to 96-well U-plate at 5×10⁴ cells per well. The supernatant was discarded after centrifugation. 50 μL of gradient diluted antibody was added (antibody concentration: from 30 ng/mL, 3-fold dilution for 5 gradients) per well, and incubated at 4° C. for 1 hour. […] After washing, 50 μL PBS was added per well to perform resuspending for FACS (iQue, intellicyt) assay (the results are seen in FIG. 13, and Table 10).

[4] = target: T4, recombinant human GPC3 protein (human, UniProt P51654 25-563); test: ELISA, coated antigen 1 µg/ml
T4 construct: also called human GPC3 full-length protein; recombinant GPC3 protein
Description: (§2) The high-affinity positive clone 49G8 was selected to detect binding activity to recombinant human, cynomolgus monkey, mouse GPC3 full-length proteins, and recombinant human GPC3 extracellular domain membrane-proximal proteins. 1 μg/ml of the above-mentioned protein was coated overnight at 4° C. After blocking, 49G8 chimeric antibody (initial concentration 200 nM, 3-fold gradient dilution, a total of 12 concentrations) was added and reacted for 1 hour at room temperature. The secondary antibody HPR-labeled goat anti-human IgG Fc was added. After being developed by the TMB solution, the reaction was stopped with concentrated sulfuric acid, and the absorbance was read at […]. The 49G8 antibody can bind to the full-length human and cynomolgus monkey GPC3 proteins and the membrane-proximal end of the extracellular region of human GPC3 with a slightly higher affinity than the control antibody and a weak affinity to mouse GPC3 protein (Table 3).

[5] = target: T5, recombinant GST-human GPC3 stem protein (human); test: ELISA, coated antigen 1 µg/ml
T5 construct: also called recombinant human GPC3 extracellular domain membrane-proximal protein
T5 sequence (chain, as listed by the source limits assumed): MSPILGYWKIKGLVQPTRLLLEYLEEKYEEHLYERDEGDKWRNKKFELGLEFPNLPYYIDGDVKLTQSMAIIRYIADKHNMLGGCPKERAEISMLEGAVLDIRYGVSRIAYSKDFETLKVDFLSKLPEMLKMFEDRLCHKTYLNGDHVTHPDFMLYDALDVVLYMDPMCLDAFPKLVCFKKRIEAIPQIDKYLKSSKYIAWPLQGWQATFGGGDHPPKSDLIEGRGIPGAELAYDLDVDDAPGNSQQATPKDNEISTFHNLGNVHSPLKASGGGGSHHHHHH
Description: as §2

[6] = target: T6, recombinant cynomolgus monkey GPC3 full-length protein (cynomolgus monkey, UniProt A0A2K5VK50 24-558); test: ELISA, coated antigen 1 µg/ml
Description: as §2

[7] = target: T6, recombinant cynomolgus monkey GPC3 …; test: ELISA on coated recombinant cynomolgus monkey GPC3 protein, OD450 [panel Recombinant cynomolgus monkey GPC3 protein]
[8] = target: T4, recombinant human GPC3 protein; test: BLI (Octet), antibody on Protein A probe
Description: (§3) Using BLI technology (Octet), the antibody to be tested was captured on the Protein A probe. The binding capacity with human GPC3 protein (10 μg/ml as the initial concentration, 2-fold gradient, a total of 5 concentration points) was detected. The affinity constant KD was obtained according to the association and dissociation rates. The 49G8 humanized antibody binds to the recombinant GPC3 protein with high affinity. The affinity data is seen in Table 6.

human GPC3 on cells = target: T7, human GPC3 on cells (human, UniProt P51654 25-563); test: flow cytometry, CHO-human GPC3 cells
T7 construct: whole, on cells; One molecule is used for both CHO-hGPC3 transfectants and GPC3+ HepG2 cells; The assay field names the cell; also called CHO-hGPC3 (clone 2B10); CHO-human GPC3
Description: The binding of the antibodies to human GPC3 stably-transfected cells was detected by FACS. CHO-human GPC3 stably-transfected cells prepared in Example 1 in the logarithmic growth phase were adjusted to 5×10⁵ cells/ml with 4% calf serum (Hyclone, SH30626.06). 100 μl/well of cell suspension was added to a 96-well U-plate, and centrifuged at 300 g for 5 min. The supernatant was discarded. 100 μL of gradient diluted antibodies (initial concentration 200 nM, 3-fold dilution, 12 gradients) was added to each well and incubated at 4° C. for 45 min. The secondary antibody Alexa Fluro647 labeled goat anti-human IgG Fc (1:300 dilution) was added at 50 μL/well, incubated on ice for 45 minutes, and detected by flow cytometry.

[9] = target: T4, recombinant human GPC3 protein; test: BLI (Octet), antibody on Protein A probe; remark: listed apart in the source
Description: as §3, with “rates.” for “rates. The 49G8 humanized antibody binds to the recombinant GPC3 protein with high affinity. The affinity data is seen in Table 6.”

[10] = target: T4, recombinant human GPC3 protein; test: ELISA on coated recombinant human GPC3 protein, OD450 [panel Recombinant human GPC3 protein]

Binder	EC50 (read off the curve) [1] [ng/mL]	EC50 [2] [nM]	EC50 (read off the curve) [3] [ng/mL]	EC50 (human CD3 on T cells) [nM]	EC50 [4] [nM]	EC50 [5] [nM]	EC50 [6] [nM]	EC50 (read off the curve) [7] [nM]	Kd [8] [nM]	koff [8] [s⁻¹]	kon [8] [M⁻¹ s⁻¹]	EC50 (human GPC3 on cells) [nM]	Kd [9] [nM]	koff [9] [s⁻¹]	kon [9] [M⁻¹ s⁻¹]	EC50 (read off the curve) [10] [nM]
B1	~0.04	0.44	~0.04	25												
B2	~0.05	0.42	~0.05	20												
B3					0.072	0.074	0.12	~0.03	1.17	9.35e-05	79700	1.18	3.32	0.000231	69400	~0.03
